Changes are numbered by the printed parent chain.

B1: ht27M1166 (TCR, V domains shown)
Valpha: GEDVEQSLFLSVREGDSSVINCTYTDSSSTYLYWYKQEPGAGLQLLTYIFSNMDMKQDQRLTVLLNKKDKHLSLRIADTQTGDSAIYFCAGSGGGTDKLIFGTGTRLQVFP
Vbeta: GAVVSQHPSWVICKSGTSVKIECRSLDFQATTMFWYRQFPKQSLMLMATSNEGSKATYEQGVEKDKFLINHASLTLSTLTVTSAHPEDSSFYICQAREPGQGPYEQYFGPGTRLTVT
B2: ht27M1360 (TCR, V domains shown)
Valpha: B1 Valpha with S51G, N52F, M53D, D54T
Vbeta: B1 Vbeta with Q95S
B3: ht27M1363 (TCR, V domains shown)
Valpha: B1 Valpha with S51N, N52T, M53Q
Vbeta: B1 Vbeta with Q95S
B4: ht27M1374 (TCR, V domains shown)
Valpha: B1 Valpha with S28T, S29D, T30I, Y31L
Vbeta: B1 Vbeta with Q95S
B5: ht27M1436 (TCR, V domains shown)
Valpha: B1 Valpha with I49T, S51W, N52F
Vbeta: B1 Vbeta with Q95S
B6: ht27M1381 (TCR, V domains shown)
Valpha: B1 Valpha with T25V, S27P, S28Y
Vbeta: B1 Vbeta with Q95S
B7: ht27M1240 (TCR, V domains shown)
Valpha: B1 Valpha with S29M
Vbeta: B1 Vbeta with Q95S
B8: ht27M1365 (TCR, V domains shown)
Valpha: B1 Valpha with N52F, M53T, D54Y
Vbeta: B1 Vbeta with Q95S
B9: ht27M1557 (TCR, V domains shown)
Valpha: B1 Valpha
Vbeta: B1 Vbeta with Q95S, G102E, P103H, Y104L, E105I
B10: ht27M1414 (TCR, V domains shown)
Valpha: B1 Valpha with I49T, F50W, S51P, N52H
Vbeta: B1 Vbeta with Q95S
B11: ht27M1003 (TCR, V domains shown)
Valpha: B1 Valpha
Vbeta: B1 Vbeta with Q95S, Q101S
B12: ht27M1378 (TCR, V domains shown)
Valpha: B1 Valpha with T25A, S27Y, S28L
Vbeta: B1 Vbeta with Q95S
B13: ht27M1245 (TCR, V domains shown)
Valpha: B1 Valpha with S29Q
Vbeta: B1 Vbeta with Q95S
B14: ht27M1226 (TCR, V domains shown)
Valpha: B1 Valpha with S28L
Vbeta: B1 Vbeta with Q95S
B15: ht27M1362 (TCR, V domains shown)
Valpha: B1 Valpha with S51I, N52F, M53Q, D54Y
Vbeta: B1 Vbeta with Q95S
B16: ht27M1369 (TCR, V domains shown)
Valpha: B1 Valpha with S51A, N52F, M53E, D54S
Vbeta: B1 Vbeta with Q95S
B17: ht27M1401 (TCR, V domains shown)
Valpha: B1 Valpha
Vbeta: B1 Vbeta with S50T, N51Q, E52P, G53L, Q95S
B18: ht27M1418 (TCR, V domains shown)
Valpha: B1 Valpha with I49G, F50T, S51W, N52L
Vbeta: B1 Vbeta with Q95S
B19: ht27M1285 (TCR, V domains shown)
Valpha: B1 Valpha with N52F
Vbeta: B1 Vbeta with Q95S
B20: ht27M1170 (TCR, V domains shown)
Valpha: B1 Valpha
Vbeta: B1 Vbeta with Q95H
B21: ht27M1002 (TCR, V domains shown)
Valpha: B1 Valpha
Vbeta: B1 Vbeta with Q95S, Q101G
B22: ht27M1457 (TCR, V domains shown)
Valpha: B1 Valpha
Vbeta: B1 Vbeta with S50T, N51D, E52Y, Q95S
B23: ht27M1290 (TCR, V domains shown)
Valpha: B1 Valpha
Vbeta: GAVVSQHPSWVICKSGTSVKIECRSLDFQATTMFWYRQFPKQSLMLMATSNEGSKATYEQGVEKDKFLINHASLTLSTLTVTSAHPEDSSFYICSARVNDGTYEQYFGPGTRLTVT
B24: ht27M1387 (TCR, V domains shown)
Valpha: B1 Valpha
Vbeta: B1 Vbeta with Q29P, A30I, T31E, T32R, Q95S
B25: ht27M1243 (TCR, V domains shown)
Valpha: B1 Valpha with S29L
Vbeta: B1 Vbeta with Q95S
B26: ht27M1398 (TCR, V domains shown)
Valpha: B1 Valpha
Vbeta: B1 Vbeta with S50T, E52L, G53P, Q95S
B27: A1A2-M01-626 (TCR, V domains shown)
Valpha: B1 Valpha with T25P, S27M, S28F, S51A, N52F, D54Q
Vbeta: B1 Vbeta with Q29P, A30I, T31E, T32R, S50T, N51D, E52Y, Q95S, Y104F
B28: A1A2-M01-619 (TCR, V domains shown)
Valpha: B1 Valpha with S29M, N52F
Vbeta: B1 Vbeta with Q29E, S50T, N51D, E52Y, Q95S

The first assay has as its target MAGE-A1 target antigen peptide … presented by HLA-A*02:01 on cells (human). Put plainly: cell-based or functional assay. Further details: EC50 Enhancement Factor: unit not given beside the values.
Take B1: the EC50 Enhancement Factor amounted to 47 and the EC50 Value (M), JKR9 reporter activation by peptide-loaded T2 cells came to 3.55e-07 M.
For B2 the same measures were 277 and 6.04e-08 M.
Take B3: the EC50 Enhancement Factor came out at 261 and the EC50 Value (M), JKR9 reporter activation by peptide-loaded T2 cells was determined as 6.4e-08 M.
In the case of B4, the EC50 Enhancement Factor is 153 and the EC50 Value (M), JKR9 reporter activation by peptide-loaded T2 cells turned out to be 1.09e-07 M.
Regarding B5, the EC50 Enhancement Factor stood at 82.8 and the EC50 Value (M), JKR9 reporter activation by peptide-loaded T2 cells was 2.02e-07 M.
For B6 the same measures were 131 and 1.28e-07 M.
For B7 the same measures were 151 and 1.1e-07 M.
In the same order, the values of B8 are 165 and 1.01e-07 M.
On to B9, for which the EC50 Enhancement Factor turned out to be 1120 and the EC50 Value (M), JKR9 reporter activation by peptide-loaded T2 cells worked out at 1.49e-08 M.
Take B10: the EC50 Enhancement Factor was determined as 739 and the EC50 Value (M), JKR9 reporter activation by peptide-loaded T2 cells stood at 2.25e-08 M.
For B11 the same measures were 14 and 1.17e-06 M.
As to B12, the EC50 Enhancement Factor worked out at 225 and the EC50 Value (M), JKR9 reporter activation by peptide-loaded T2 cells came to 7.4e-08 M.
In the same order, the values of B13 are 30 and 5.54e-07 M.
B14: the EC50 Enhancement Factor was 28 and the EC50 Value (M), JKR9 reporter activation by peptide-loaded T2 cells is 5.88e-07 M.
For the molecule B15, the EC50 Enhancement Factor was determined as 419 and the EC50 Value (M), JKR9 reporter activation by peptide-loaded T2 cells was 3.99e-08 M.
Take B16: the EC50 Enhancement Factor amounted to 218 and the EC50 Value (M), JKR9 reporter activation by peptide-loaded T2 cells was found to be 7.66e-08 M.
In the case of B17, the EC50 Enhancement Factor is 184 and the EC50 Value (M), JKR9 reporter activation by peptide-loaded T2 cells was 9.05e-08 M.
In the same order, the values of B18 are 1650 and 1.01e-08 M.
Take B19: the EC50 Enhancement Factor is 281 and the EC50 Value (M), JKR9 reporter activation by peptide-loaded T2 cells worked out at 5.93e-08 M.
As for B20, the EC50 Enhancement Factor is 39 and the EC50 Value (M), JKR9 reporter activation by peptide-loaded T2 cells turned out to be 4.25e-07 M.
In the same order, the values of B21 are 12 and 1.36e-06 M.
In the same order, the values of B22 are 352 and 4.73e-08 M.
In the same order, the values of B23 are 711 and 3.24e-08 M.
Take B24: the EC50 Enhancement Factor came out at 131 and the EC50 Value (M), JKR9 reporter activation by peptide-loaded T2 cells is 1.28e-07 M.
In the same order, the values of B25 are 56 and 2.98e-07 M.
For B26 the same measures were 316 and 5.28e-08 M.

The next assay has as its target T1, MAGE-A1 peptide on HLA-A*02:01 (human).
T1 peptide: KVLEYVIKV
Briefly: JKR9 reporter + peptide-loaded T2, 16 h; full-length, on cells.
Regarding B1, the EC50 of peptide worked out at 355 nM.
Same read-out and setting: with B2 the figure was 60.4 nM.
For B3, the EC50 of peptide came to 64 nM.
On the same count and under the same terms, with B4 the figure was 109 nM.
With B5, the EC50 of peptide was determined as 202 nM.
On the same count and under the same terms, with B6 the figure was 128 nM; with B7, 110 nM; with B8, 101 nM.
The same measure, in the same setting: with B9 the figure was 14.9 nM; with B10, 22.5 nM; with B11, 1170 nM.
Still for that read-out and setting: with B12 the figure was 74 nM.
For B13, the EC50 of peptide turned out to be 554 nM.
Still for that read-out and setting: with B14 the figure was 588 nM; with B15, 39.9 nM; with B16, 76.6 nM.
Same read-out and setting: the value for B17 was 90.5 nM.
On the same count and under the same terms, the value for B18 was 10.1 nM; that for B19 was 59.3 nM; that for B20 was 425 nM.
Consider B21, for which the EC50 of peptide was 1360 nM.
For B22, the EC50 of peptide was 47.3 nM.
Regarding B23, the EC50 of peptide turned out to be 32.4 nM.
Still for that read-out and setting: the value for B24 was 128 nM.
On the same count and under the same terms, with B25 the figure was 298 nM.
Still for that read-out and setting: with B26 the figure was 52.8 nM.

Another assay deals with T1, MAGE-A1 peptide on HLA-A*02:01. The assay is described as above. This is another data set of the same source.
B27: the EC50 of peptide came out at 22.6 nM.
Still for that read-out and setting: with B28 the figure was 27.4 nM.

The target in another assay is MAGE-A1 target antigen peptide … presented by HLA-A*02:01 on cells (human). Put plainly: cell-based or functional assay. This is another data set of the same source.
Turning to B27, the EC50 Value (M), JKR9 reporter activation by peptide-loaded T2 cells was determined as 2.26e-08 M.
Same read-out and setting: the value for B28 was 2.74e-08 M.

The values are drawn from patent EP4534554A1 (Corregene Biotechnology Co., Ltd., dated 2025).
